{"source": "patent US20200369772A1", "about": "(ABBA THERAPEUTICS, published 2020)", "molecules": {"B1": {"name": "10A9-D2 N31Q.LC (antibody, V domains shown)", "VH": "QVQLQESGPGLVKPSETLSLTCAVSGGSISSSYWWSWVRQPPGKGLEWVGEVFHVGVTNYNPSLKSRVTISVDKSKNQFSLKLTSVTAADTAVYYCARVTGTTGYYHGLDVWGQGTTVTVFS", "VL": "DIQMTQSPSSLSASVGDRVTITCRASQGIRQDLGWYQQKPGKVPKRLIYAASSLQSGIPSRFSGSGSGTEFTLTISSLQPEDFATYYCLQHNNYPRTFGQGTKVEIK", "notes": "Optimized variant of 10A9-D2"}, "B2": {"name": "19B3-B3 M23K.M63L.HC (antibody, V domains shown)", "VH": "QVQLVQSGAEVKKPGASVKVSCKASGYTFTNYAIHWVRQAPGQRLEWMGWINTGLGKPKYSQLFQDRVTITRDTSASTASMELSGLRSDDTAVYYCARVGWELYFDYWGQGTLVTVSS", "VL": "DIQMTQSPSTLSASVGDRVTITCRASQSISSLLAWYQQKPGKAPKLLIYKASSLESGVPSRFSGSGSGTEFTLTISSLQPDDFATYFCQQYNSYWTFGQGTKVEIK", "notes": "Optimized variant of 19B3-B3"}, "B3": {"name": "19B3-B3 N92Q.LC.M23K.M63L.HC (antibody, V domains shown)", "VH": "B2 VH", "VL": "B2 VL with N92Q", "notes": "Optimized variant of 19B3-B3"}, "B4": {"name": "19B3-B3 N92Y.LC.M23K.M63L.HC (antibody, V domains shown)", "VH": "B2 VH", "VL": "B2 VL with N92Y", "notes": "Optimized variant of 19B3-B3"}}, "key": {"endogenous PD-L2 (human) [1]": {"biological_target": "endogenous PD-L2 (human) (UniProt Q9BQ51)", "experiment": "FACS, NCI-H226 cells"}, "endogenous PD-L2 (human) [2]": {"biological_target": "endogenous PD-L2 (human) (UniProt Q9BQ51)", "experiment": "FACS, NCI-H226 cells", "remark": "listed apart in the source"}, "PD-L2 (human) [3]": {"biological_target": "PD-L2 (human) (UniProt Q9BQ51)", "experiment": "FACS, CHO-K1 expressing human PD-L2"}, "PD-L2 (human) [4]": {"biological_target": "PD-L2 (human) (UniProt Q9BQ51)", "experiment": "FACS blocking of PD-1 binding to CHO-K1/hPD-L2; high antigen concentration"}, "PD-L2 (human) [5]": {"biological_target": "PD-L2 (human) (UniProt Q9BQ51)", "experiment": "FACS blocking of PD-1 binding to CHO-K1/hPD-L2; high antigen concentration", "remark": "listed apart in the source"}, "PD-L2 (human) [6]": {"biological_target": "PD-L2 (human) (UniProt Q9BQ51)", "experiment": "FACS blocking of hPD-L2 binding to HEK293T-hPD-1; low antigen concentration"}, "PD-L2 (human) [7]": {"biological_target": "PD-L2 (human) (UniProt Q9BQ51)", "experiment": "blocking of PD-L2 - PD-1 interaction (cell binding); low antigen concentration"}, "[8]": {"biological_target": "T1, human PD-L1 (full-length, on cells) (human, UniProt Q9NZQ7 19-290)", "T1 construct": "whole, on cells; HEK293 cells stably expressing full-length human PD-L1", "T1 sequence (Q9NZQ7 19-290)": "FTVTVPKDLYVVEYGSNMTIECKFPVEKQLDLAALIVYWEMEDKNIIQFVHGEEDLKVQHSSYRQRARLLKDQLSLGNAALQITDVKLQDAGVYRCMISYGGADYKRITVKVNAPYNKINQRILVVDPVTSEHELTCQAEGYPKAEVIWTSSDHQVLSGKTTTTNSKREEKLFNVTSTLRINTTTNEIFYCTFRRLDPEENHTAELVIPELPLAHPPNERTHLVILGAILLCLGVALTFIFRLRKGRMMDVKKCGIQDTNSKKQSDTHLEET", "experiment": "FACS on HEK293T cells expressing human PD-L1", "experimental": "(§1) HEK293T cells expressing human PD-L1 were incubated with chimeric anti-PD-L2 antibodies. Cells were washed and binding was detected with an FITC-labelled anti-rat IgG Ab (Thermo Fisher Scientific). Flow cytometric analyses were performed using a FACSCalibur flow cytometer (Becton Dickinson). PE-labelled anti-human PD-L1 clone MIH1 served as positive control. All peaks overlap except for the positive control in FIG. 7F.\n(§2) The ability of anti-PD-L2 antibodies binding to mouse PD-L2, human PD-L1 or cyno PD-L2 was determined by FACS. HEK293 cells stably expressing full-length monkey PD-L2, mouse PD-L2 or human PD-L1 were established, subcloned and verified. For binding assay, 1.5×10⁵ cells in 100 μl of FACSwash buffer were incubated with individual anti-PD-L2 antibodies (0.5 μg/ml) for 30 min. After three times of washing, the cells were re-suspended in FACSwash buffer containing FITC-labelled goat-anti-rat IgG (Thermo Fisher, 1:1000) or APC-labelled goat-anti-ratIgG (Biolegend, Clone Poly4054) at a 1:2000 dilution for 20 min at 4° C., washed three times and subsequently subjected to FACS analysis. FACS data was analysed using FlowJo Software and depicted as histograms including secondary antibody only controls."}, "[9]": {"biological_target": "T2, mouse PD-L2 (full-length, on cells) (mouse, UniProt Q9WUL5 20-247)", "T2 construct": "whole, on cells; HEK293 cells stably expressing full-length mouse PD-L2", "T2 sequence (looked up)": "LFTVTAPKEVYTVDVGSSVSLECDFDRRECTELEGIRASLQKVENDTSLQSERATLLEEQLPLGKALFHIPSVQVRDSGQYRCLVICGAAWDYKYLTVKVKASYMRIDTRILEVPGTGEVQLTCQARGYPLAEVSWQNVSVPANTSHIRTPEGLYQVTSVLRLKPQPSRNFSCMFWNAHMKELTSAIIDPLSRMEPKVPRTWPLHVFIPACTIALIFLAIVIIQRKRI", "experiment": "FACS on HEK293T cells expressing mouse PD-L2", "experimental": "as §1, with “mouse PD-L2” for “human PD-L1”, “anti-mouse PD-L2” for “anti-human PD-L1”, “TY25” for “MIH1”, “6F.” for “7F.”\nas §2"}, "[10]": {"biological_target": "T3, human PD-L2 (full-length, on cells) (human, UniProt Q9BQ51 20-273)", "T3 construct": "whole, on cells; CHO-K1 cells stably expressing full-length human PD-L2; also endogenous on NCI-H226 and transfected in Jurkat cells; also called hPD-L2; CHO-K1/hPD-L2", "T3 sequence (looked up)": "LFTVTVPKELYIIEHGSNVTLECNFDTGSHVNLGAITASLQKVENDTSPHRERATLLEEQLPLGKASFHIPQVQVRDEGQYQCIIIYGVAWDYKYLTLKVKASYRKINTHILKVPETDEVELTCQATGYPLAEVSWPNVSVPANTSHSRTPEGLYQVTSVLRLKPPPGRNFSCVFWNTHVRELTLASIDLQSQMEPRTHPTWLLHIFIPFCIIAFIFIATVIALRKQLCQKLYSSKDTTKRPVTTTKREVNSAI", "experiment": "FACS binding on cells expressing human PD-L2 (per the examples)"}, "[11]": {"biological_target": "T4, human PD-L2 (full-length, on cells) (human, UniProt Q9BQ51 20-273)", "T4 chain": "T3 sequence (looked up)", "experiment": "FACS binding to CHO-K1 cells expressing human PD-L2", "method_in_brief": "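Flow cytometry on a BD FACSCalibur was used to measure binding to CHO-K1 cells stably expressing full-length human PD-L2. Staining took 20 min at 4° C with APC-labelled anti-rat IgG or anti-human IgG Fc, chosen to match the antibody format. GraphPad Prism was used for non-linear curve fitting of percentage of maximal binding against concentration to obtain the binding EC50.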"}, "[12]": {"biological_target": "T3, human PD-L2 (full-length, on cells)", "experiment": "FACS on CHO-K1 cells expressing human PD-L2, against the parental antibody", "method_in_brief": "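Sequence-optimised antibodies expressed in HEK293 cells and their parental antibodies were incubated at different concentrations with CHO-K1 cells expressing human PD-L2. Cells were washed and binding was detected with an APC-labelled anti-human Fc antibody by flow cytometry on a FACSCalibur.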"}}, "note": "Numbering of substitutions follows the chain as printed. Numbers in names are those of the source. Like-named read-outs stand apart in the source and are kept apart here.", "data": [{"molecule": "MIH18", "values": [{"measurement": "EC50", "setting": "endogenous PD-L2 (human) [1]", "value": 2.21, "unit": "nM"}, {"measurement": "EC50", "setting": "endogenous PD-L2 (human) [2]", "value": 2.69, "unit": "nM"}, {"measurement": "EC50", "setting": "PD-L2 (human) [3]", "value": 1.59, "unit": "nM"}, {"measurement": "IC50", "setting": "PD-L2 (human) [4]", "value": 2.42, "unit": "nM"}, {"measurement": "IC50", "setting": "PD-L2 (human) [5]", "value": 1.8, "unit": "nM"}, {"measurement": "IC50", "setting": "PD-L2 (human) [6]", "value": 0.104, "unit": "nM"}, {"measurement": "IC50", "setting": "PD-L2 (human) [7]", "value": 0.0671, "unit": "nM"}]}, {"molecule": "B1", "values": [{"measurement": "binding result", "setting": "[8]", "value": "no binding"}, {"measurement": "binding result", "setting": "[9]", "value": "no binding"}, {"measurement": "binding result", "setting": "[10]", "value": "binds"}, {"measurement": "EC50", "setting": "[11]", "value": 0.32, "unit": "nM"}]}, {"molecule": "B2", "values": [{"measurement": "binding result", "setting": "[8]", "value": "no binding"}, {"measurement": "binding result", "setting": "[9]", "value": "no binding"}, {"measurement": "binding result", "setting": "[10]", "value": "binds"}, {"measurement": "EC50", "setting": "[11]", "value": 0.38, "unit": "nM"}]}, {"molecule": "B3", "values": [{"measurement": "binding result", "setting": "[8]", "value": "no binding"}, {"measurement": "binding result", "setting": "[9]", "value": "no binding"}, {"measurement": "binding result", "setting": "[12]", "value": "binds"}]}, {"molecule": "B4", "values": [{"measurement": "binding result", "setting": "[8]", "value": "no binding"}, {"measurement": "binding result", "setting": "[9]", "value": "no binding"}, {"measurement": "binding result", "setting": "[12]", "value": "binds"}]}]}
